Test: label from the status in PepcDB records
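Also: failed if final PepcDB status was selected cloned or expressed and not failed if soluble or beyond.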

Question: For “MRNPFERMPTVLTADELIDKAFRRAEKAASSFKPRGNKVKKARLREELRVRTVSNVVRDNLRKVLERTPGLSTLPKFYQELVDVLVDRDTFHKAMAGIDWAIRIIRELEERYVERIRYSNDPNEIAELRRQFYGRVASVLRDIDDRLRYLNKAREVLKDLPVVDLEIPTVVIAGHPNVGKSTLLKALTTAKPEIASYPFTTRGINVGQFEDGYFRYQIIDTPGLLDRPISERNEIEKQAILALRYLGNLIIYIFDPSEHCGFPLEEQIHLFEEVHGEFKDLPFLVVINKIDVADEENIKRLEKFVKEKGLNPIKISALKGTGIDLVKEEIIKTLRPLAEKVAREKIERELRRYRSYL”, which protein production is on record?
Answer: The protein production was “not failed”.

Question: With “MRNRLPPAWAKHLKTQPSVKVAMPKATLPKAQPNASPPRSQADDMLLRQALELQQAKRLPEAEELCLRVLARTPNHPLAYYILGTLGIGYDNEKALRYFARAVAEEPQNPYYHLSLGETYLKVSEFTPAIRHIQQALDLKPDLVEALCALGDAYNEFDKGELALPLFEKALKIDRYHPLARLGLPYALASLGRMDEAAVLLKEAIDRRIALPTAYGALVQTRNFTEEPPELESILAELRDPDLGSEDASALHHAAGKVLNDLGRYKEAMVHYKKGNQAGGHKFDLENYRRWIDAMIETFTPELFASRAAYGNPSDAPVFVVGMPRSGTTLTEQICASHPNVHGAGELGKLRRVANGIGLANRSNTNFAESIATFTPDLTRALAGEHLAYLRERAPDALRIVDKMPHNFELIGLIGILFPNARIIHCRRDAIDNCISCFVLRFNEAHSYSADLQTLGLYYREYDRLMRHWNKVLPGRIFENRYEALIENQEQQSRRLIDYLGLPWDDACLRFFDREGSVNTYSRWQVRQPIYTSSIKRWRNYESEIQSLIESLGDLAET” as the sequence, how does the protein production read?
Answer: Its protein production is “failed”.

Question: For “MRNRTLADLDRVVALGGGHGLGRVLSSLSSLGSRLTGIVTTTDNGGSTGRIRRSEGGIAWGDMRNCLNQLITEPNVASAMFEYRFGGNGELSGHNLGNLMLKALDHLSVRPLEAINLIRNLLKVDTHLIPMSEHPVDLMAIDDQGHEVYGEVNIDQLTTPIQELLLTPNVPATREAVHAINEADLIIIGPGSFYTSLMPILLLKEIAQALRRTPAPMVYIGNLGRELSLPAANLKLESKLAIMEQYVGKKVIDAVIVGPKVDVSAVKERIVIQEVLEASDIPYRHDRQLLHNALEKALQALGLEHHHHHH”, which protein production is on record?
Answer: The protein production was “failed”.

Question: Which protein production does the source give for “MRNTNLQAMIESAILAAFALVIDILPLSIKLPTGGSISFAMIPIFIIAYRWGFKSAFLGGLVWGLLQIVVGDAYILTPVQAFIEYFIAFAFIGFAGLFYRPIQKALLTSNENNLEQSSLGSRKDKPSSKQNEGKKVLAYIILATFIGSFARYFCHFIAGIIFWGQYAPKGQSAVLYSLIVNGSTMIGSYILCTVLLIFLFLTSPRLFKSISAYQLNANKKGA” here?
Answer: The protein production was “failed”.

Question: For “MRPAVIAATGLYTPPDSVSNAELVEAFNTYVANFNAANKARIEAGEIEPLQPSSSEFIEKASGIKSRYVVAKPGIVDPDVMRPIIPERSNDELSILAEMAVTAAEQAIERWGKPRERIGAVLCACSNMQRAYPAMAIEVQNALGLGGFAFDMNVACSSATFGLKTAADFVGGGSVDAVLMVNPEICSGHLNFRDRDSHFIFGDVATAAIVERADDAQGGWS”, which protein production is on record?
Answer: The protein production was “failed”.

Question: For “MRPESMTDGVPGSDSPAAAAAAASVTTSLHDLQVLVERGTLSGPEKQQADHLVTSLKRELVLRRVGDHLAERTFHELCVRLAVMERDWAAMERHIQQLMPLYELDRQAGIQSPHRDLLVGLNLMRLLAQNRLAEYHMELELLPTTEPQQNPYVLFPFQVEQALTEGSYQKILHIEAGAEWLPFIELLRETTIQEMVTSWAEAYAHVTLEELASMAALPVEQVPALLARVLDCTQYVVQNETVHFIASDHIREAPSQYLLAKEAVSRTMEYIRGLERIV”, which protein production is on record?
Answer: The protein production was “not failed”.

Question: Which protein production does the source give for “MRPHRAFSPGLTGVLPLRETRHLVEVLRARVGDRFTVFDGEREALAEVVDLGPPLRYRVLEERRPEREVGVEVVLYVALLKGDKLAEVVRAATELGATRIQPLVTRHSVPKEMGEGKLRRLRAVALEAAKQSGRVVVPEVLPPIPLKAVPQVAQGLVAHVGATARVREVLDPEKPLALAVGPEGGFAEEEVALLEARGFTPVSLGRRILRAETAALALLALCTAGEGR” here?
Answer: Its protein production is “not failed”.

Question: For “MRPRLGLLDASVLSFAVLPTDLDFNRHMTNARYLSLMDLGRLDLILRSGMWRLVLRQSLQPVIGGALVRFRHALRPFQPFRLTTRVLAWDARWLFIEHRVETLDGKPACTAVVRAAFVASTGMLPTADLLTRLGYGGAAPDVPAWIAPWLQADLACQPLEHHHHHH”, which protein production is on record?
Answer: Its protein production is “failed”.

Question: With “MRPVPPPPDRSGRCFASPRRSDLSPQAGRGEEPLAAPIEPSLPPSRPIPGRPAPPGTFAMDWTWYLFRFDGRINRALLWQALLIVALLAGLLEIVGQVIGILGGTRSTLKLAIDLDFDFGLDDLFKLVDPRASRSLASADRATSILKASGMALFFWIYLATTIKRLHDRDRSGWWIVPFFVVPGLFSQFADLLPNSNWMLPFSLAVSILWLWGLVEMFCRPGTSGHNRFGPDPLADFEDSSAASPAQGWDQSREIEIVPPNASPPGGMHVKRGA” as the sequence, how does the protein production read?
Answer: Its protein production is “failed”.

Question: With “MRQDAEVIMKLTDADNAADGIFFPALEQNMMGAVLINENDEVMFFNPAAEKLWGYKREEVIGNNIDMLIPRDLRPAHPEYIRHNREGGKARVEGMSRELQLEKKDGSKIWTRFALSKVSAEGKVYYLALVRDASVEMAQKEQTRQLIIAVDHLDRPVIVLDPERHIVQCNRAFTEMFGYCISEASGMQPDTLLNIPEFPADNRIRLQQLLWKTARDQDEFLLLTRTGEKIWIKASISPVYDVLAHLQNLVMTFSDITEERQIRQLEGNILAAMCSSPPFHEMGEIICRNIESVLNESHVSLFALRNGMPIHWASSSHGAEIQNAQSWSATIRQRDGAPAGILQIKTSSGAETSAFIERVADISQHMAALALEQEKSRQHIEQLIQFDPMTGLPNRNNLHNYLDDLVDKAVSPVVYLIGVDHIQDVIDSLGYAWADQALLEVVNRFREKLKPDQYLCRIEGTQFVLVSLENDVSNITQIADELRNVVSKPIMIDDKPFPLTLSIGISYDLGKNRDYLLSTAHNAMDYIRKNGGNGWQFFSPAMNEMVKERLVLGAALKEAISNNQLKLVYQPQIFAETGELYGIEALARWHDPLHGHVPPSRFIPLAEEIGEIENIGRWVIAEACRQLAEWRSQNIHIPALSVNLSALHFRSNQLPNQVSDAMHAWGIDGHQLTVEITESMMMEHDTEIFKRIQILRDMGVGLSVDDFGTGFSGLSRLVSLPVTEIKIDKSFVDRCLTEKRILALLEAITSIGQSLNLTVVAEGVETKEQFEMLRKIHCRVIQGYFFSRPLPAEEIPGWMSSVLPLKI” as the sequence, how does the protein production read?
Answer: Its protein production is “failed”.

Question: Which protein production does the source give for “MRQIGNRRVAPLAILAAVLMGGPTNASTGEFKVAYLYNLSDFTGTIPYSLAKIALDATARETYVISGETVKVFNNSGMEVYRFTNTMESGIVYDAAIDEQGRILVLAYNNGTPSLLLCNYRAEPIKPIEFKGLPEKLAAFKPNRLMLRDGKICLVSLGSMMVVMLDPEGNYVKHIDLAEASSVTEEDRLNTGIGAVAFDSDGSVLFTSPVTGKVFRISANGTVESFGKRGSAPGKFGVPTGIAVDGLGNYYISDKLRCAILVFDRQFKFIYEFGGRGDAPGSLVGPDDLAIDAEGKLYVGQLGNRGVSVFKVTHD” here?
Answer: The protein production was “failed”.

Question: With “MRQSTLHTRLSTGPGGSMRSSIEIFNIRTRKMRVVWQTPELFEAPNWSPDGKYLLLNSEGLLYRLSLAGDPSPEKVDTGFATICNNDHGISPDGALYAISDKVEFGKSAIYLLPSTGGTPRLMTKNLPSYWHGWSPDGKSFTYCGIRDQVFDIYSMDIDSGVETRLTHGEGRNDGPDYSPDGRWIYFNSSRTGQMQIWRVRVDGSSVERITDSAYGDWFPHPSPSGDKVVFVSYDADVFDHPRDLDVRVQLMDMDGGNVETLFDLFGGQGTMNSPNWSPDGDEFAYVRYFPVE” as the sequence, how does the protein production read?
Answer: Its protein production is “not failed”.

Question: For “MRQTFIARKISFISLIHFRDEYMSPQNNHLQRPPAAVLYADELAKLKQNDNAPCPPGWQLSLPAARAFILGDEAQNISRKVVISPSAVERMLVTLATGRGLMLVGEPGTAKSLLSELLATAISGDAGLTIQGGASTTEDQIKYGWNYALLINHGPSTEALVPAPLYQGMRDGKIVRFEEITRTPLEVQDCLLGMLSDRVMTGPELTGEASQLYAREGFNIIATANTRDRGVNEMSAALKRRFDFETVFPIMDFAQELELVASASARLLAHSGIPHKVPDAVLELLVRTFRDLRANGEKKTSMDTLTAIMSTAEAVNVAHAVGVRAWFLANRAGEPADLVECIAGTIVKDNEEDRARLRRYFEQRVATHKEAHWQAYYQARHRLP”, which protein production is on record?
Answer: The protein production was “failed”.

Question: Which protein production does the source give for “MRRENTKSNIDFKSIFDSLPDLYLLLDRDFNIVGVSDAYLQATMVSRKQILGKNVFDAFPDNPNDPKATGAKNLYASLLRVLKNKSADTMAIQKYDIQRPADRGGGFEERYWSPINTPVLGADQEVEYIIHRVEDVT” here?
Answer: Its protein production is “failed”.

Question: For “MRRGRGKGKKQNASAREDRGSGDEEKIPAYRRRGRPQKPMKDDFEEEEEEDDEEMVEKMEVEDEDEEIDDGSVTSKDLKERKRKMSNGSNTDLTEEENGLGSKPNTDDSTRSTSIGFRQNGSRRKSKPRRAAEAVVECNGV”, which protein production is on record?
Answer: The protein production was “failed”.

Question: For “MRRHRLSGQITLSMSVVVAIAVLMVFVGTFIFYSIYMTWFPPPPGPPPLLPEAPDFILIAIFLLLGLAIAIHAALRLTRRILAPLNSLAEGARKIAAGDLTARAVAGDRSLGETAQLVDDFNAMARRLEDAAESMTSWNAAIAHELRTPLTILRGRLQGLTDGVFEPSDELFRSLLVQVENLSRLVDDLRVVTLSDSQRLDMRVEPTDLANEVAQAVDAMRPALEGAGFSIRMTTEPVTLPCDGPRIRQALLALLENARRYATPGMIVIRMTLETFEVAIAVEDEGPGLSAEFAARAFDAFVRAEPSRSRQFGGSGLGLSVVRAIAEAHGGHARYSTSEKGGSVFEIVFPIDGASADSNAASCAPKV”, which protein production is on record?
Answer: Its protein production is “failed”.

Question: Which protein production does the source give for “MRRKERRESMKKHRQLLALFICLVMSVSLLTGYSETKAATEEPTQSAEQDATQETAETREITDMAGRKVTVPTAENIESVFSAGPVAAIFLYMVVPDKLLGWNYELNDVEKSIILDKYQDLPNFGMGDAVNYEAVIAANPTIAINSGKINDAMVSDCDALSESLGIPVVAVDNELNNSAEAFRFMGELLGVEDHAEELAQYAEQVFTDINVLSDIPEEKKVSVYFGNGEDSLETAPRGSQHAQILDAINAVNVADLELGDGSRVQISAEQLLAWDPDVIVVNGEPKADKSGSSAAEDILSNPDYASLKAVQDQKVYGTPNAPFSWVDRPAGPNRLIGMRWFSALIYPEYIKCDINEEIHKFFDLFYHVDLSDEQLENVLKGTL” here?
Answer: Its protein production is “failed”.

Question: For “MRRNRVDVITLGCSKNLVDSEVLMRQFLSNGYTVHHDPASVCGEIVVVNTCGFIGDAQEESVNTILEMVEAKKAGRIGSLYVMGCLSERFREDLKKEIPEVDAYYGKFDWKQLISHLGKSYYAEAENRRKLTTPRHYAYLKISEGCDRSCSYCAIPIITGRHRSRPMEDLVEEVRMLVKHGTREFQLIAQDLTFYGLDLYGANRLAELTARLSDIKGVEWLRLHYAYPAQFPLDLLPVMRERPNVCKYLDMALQHISDPMLGRMRRRITKAETYELIERIRTEVPGIHLRTTLMTGHPGETERDFEELLQFVRDIRFERLGAFTYSHESGTYCDKNYQDDIPESVKQERLGELMAVQERISAAHNEAKIGSRLHVVIDRAEDGFYVGRTEYDSPEVDPEVLIPFVSGQELNPGRFYMAEVTGAEPFDLYARIVDLEHHHHHH”, which protein production is on record?
Answer: The protein production was “failed”.

Question: Which protein production does the source give for “MRRSPCNQGLSNLMQLFTYLAPAGQALLPYLSEISIALVACTLVMLGGEINAFLRRALRNQHFLVRTLAFIFINAFGYGLIIVKASPYVARTLAQLESGMMLTLIVSCFVVIGLWAQRNHQI” here?
Answer: The protein production was “failed”.

Question: For “MRRSPWRIAYTTKPADTAVPARHPSMAHIFFAASIQRHIATPEREVDARTLGEALEAVFAAQPRLRGYILDDQGALRKHLAVFVDGQPVRDRQHLSDALGENSRVYVIQALTGG”, which protein production is on record?
Answer: The protein production was “failed”.

Question: Which protein production does the source give for “MRRSRSSAAAKLRGQKRSGASGASAAPAASAAAALAPSATRTRRSASQAGSKSQAVEKPPSEKPRLRRSSPRAQEEGPGEPPPPELALLPPPPPPPPTPATPTSSASNLDLGEQRERWETFQKRQKLTSEGAAKLLLDTFEYQGLVKHTGGCHCGAVRFEVWASADLHIFDCNCSICKKKQNRHFIVPASRFKLLKGAEHITTYTFNTHKAQHTFCKRCGVQSFYTPRSNPGGFGIAPHCLDEGTVRSMVTEEFNGSDWEKAMKEHKTIKNMSKE” here?
Answer: Its protein production is “failed”.

— a protein production outcome set (Wang et al. 2014)
